Data taken from publication PMC11957692, “TRIB3 mediates vascular calcification by facilitating self-ubiquitination and dissociation of Smurf1 in chronic kidney disease” (The Journal of Clinical Investigation, 2025).

Assays:
[1] = target: T1, recombinant Smurf1 protein (UniProt Q9HCE7 1-757); experiment: SPR; recombinant Smurf1 immobilised on a CM5 sensor chip by amine coupling; TRIB3 protein applied at 31 nM to 8 uM; Biacore T200, kinetics model; conditions: both partners purified
T1 construct: Smad ubiquitination regulatory factor 1 (Smurf1), recombinant protein immobilised on a CM5 chip for SPR; also called Smad ubiquitination regulatory factor 1; E3 ubiquitin-protein ligase Smurf1

[2] = target: T2, recombinant Smurf1 protein (UniProt Q9HCE7 1-757); experiment: SPR
T2 chain: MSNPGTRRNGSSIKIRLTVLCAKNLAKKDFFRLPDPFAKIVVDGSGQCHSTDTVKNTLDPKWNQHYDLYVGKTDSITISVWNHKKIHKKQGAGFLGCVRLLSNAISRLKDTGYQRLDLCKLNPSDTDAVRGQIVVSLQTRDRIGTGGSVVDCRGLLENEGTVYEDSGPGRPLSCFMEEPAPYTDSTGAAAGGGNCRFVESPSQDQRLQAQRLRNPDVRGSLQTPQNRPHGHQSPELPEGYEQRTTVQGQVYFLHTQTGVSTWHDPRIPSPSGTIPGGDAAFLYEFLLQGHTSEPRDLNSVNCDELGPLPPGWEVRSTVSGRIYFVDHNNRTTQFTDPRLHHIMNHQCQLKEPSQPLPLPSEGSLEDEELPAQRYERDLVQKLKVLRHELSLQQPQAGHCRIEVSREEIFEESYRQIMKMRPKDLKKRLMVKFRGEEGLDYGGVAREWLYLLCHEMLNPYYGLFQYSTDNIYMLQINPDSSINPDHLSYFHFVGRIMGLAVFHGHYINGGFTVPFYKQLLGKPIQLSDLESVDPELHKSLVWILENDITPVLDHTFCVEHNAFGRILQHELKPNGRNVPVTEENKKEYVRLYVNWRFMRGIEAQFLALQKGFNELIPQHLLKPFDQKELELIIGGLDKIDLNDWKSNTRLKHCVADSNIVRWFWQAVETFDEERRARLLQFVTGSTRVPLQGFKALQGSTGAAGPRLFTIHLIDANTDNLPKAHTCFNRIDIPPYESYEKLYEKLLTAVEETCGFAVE

B1: recombinant TRIB3 protein (natural protein, UniProt Q96RU7 1-358, looked up)
chain: MRATPLAAPAGSLSRKKRLELDDNLDTERPVQKRARSGPQPRLPPCLLPLSPPTAPDRATAVATASRLGPYVLLEPEEGGRAYQALHCPTGTEYTCKVYPVQEALAVLEPYARLPPHKHVARPTEVLAGTQLLYAFFTRTHGDMHSLVRSRHRIPEPEAAVLFRQMATALAHCHQHGLVLRDLKLCRFVFADRERKKLVLENLEDSCVLTGPDDSLWDKHACPAYVGPEILSSRASYSGKAADVWSLGVALFTMLAGHYPFQDSEPVLLFGKIRRGAYALPAGLSAPARCLVRCLLRREPAERLTATGILLHPWLRQDPMPLAPTRSHLWEAAQVVPDGLGLDEAREEEGDREVVLYG
notes: Tribbles homolog 3 (TRIB3), recombinant protein flowed over the chip in SPR; also called tribbles homolog 3
How did the Kd [1] turn out when B1 was run?
The Kd was 1030 nM.

What about the koff [2] of the same binder?
Its koff is 0.0015 s⁻¹.
